The substances below were run on Histone H1.

Sequence of wild type PIM1 fused to GFP with a myc tag (chain, as listed by the source): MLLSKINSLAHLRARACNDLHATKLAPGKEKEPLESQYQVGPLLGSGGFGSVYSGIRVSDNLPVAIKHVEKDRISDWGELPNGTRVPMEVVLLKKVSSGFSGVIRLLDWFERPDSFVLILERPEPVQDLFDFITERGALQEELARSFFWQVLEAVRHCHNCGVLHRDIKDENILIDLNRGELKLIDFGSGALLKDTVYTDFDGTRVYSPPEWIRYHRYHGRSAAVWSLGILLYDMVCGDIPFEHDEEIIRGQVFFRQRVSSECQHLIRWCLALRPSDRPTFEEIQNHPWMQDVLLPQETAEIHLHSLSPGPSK
Sequence of Pim1 K67A mutant fused to GFP with a myc tag (chain, as listed by the source K67A): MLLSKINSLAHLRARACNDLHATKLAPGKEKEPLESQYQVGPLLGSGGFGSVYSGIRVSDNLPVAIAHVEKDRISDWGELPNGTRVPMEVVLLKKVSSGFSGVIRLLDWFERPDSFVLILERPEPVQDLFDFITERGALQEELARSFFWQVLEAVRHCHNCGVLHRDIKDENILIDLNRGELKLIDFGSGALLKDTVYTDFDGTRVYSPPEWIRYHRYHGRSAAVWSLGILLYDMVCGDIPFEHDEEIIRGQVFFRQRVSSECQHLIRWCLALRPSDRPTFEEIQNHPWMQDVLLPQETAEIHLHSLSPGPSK
Sequence of PIM1 D186N mutant fused to GFP with a myc tag (chain, as listed by the source D186N): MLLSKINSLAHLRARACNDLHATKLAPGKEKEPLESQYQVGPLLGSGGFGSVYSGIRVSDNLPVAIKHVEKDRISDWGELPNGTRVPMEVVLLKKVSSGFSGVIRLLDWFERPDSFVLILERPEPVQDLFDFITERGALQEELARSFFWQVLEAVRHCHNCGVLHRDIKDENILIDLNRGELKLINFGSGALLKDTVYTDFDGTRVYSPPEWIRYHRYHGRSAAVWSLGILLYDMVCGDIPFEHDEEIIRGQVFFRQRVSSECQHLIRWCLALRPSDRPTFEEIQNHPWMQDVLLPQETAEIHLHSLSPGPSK

Row | Substance | kinase activity (immune complex kinase assay, 32P-ATP)
1 | PIM1 D186N mutant fused to GFP with a myc tag | Wild type PIM1 exhibited kinase activity, while the mutant PIM1 proteins did not.
2 | wild type PIM1 fused to GFP with a myc tag | Wild type PIM1 exhibited kinase activity, while the mutant PIM1 proteins did not.
3 | Pim1 K67A mutant fused to GFP with a myc tag | Wild type PIM1 exhibited kinase activity, while the mutant PIM1 proteins did not.

From patent US20040126784
